Source: patent US20180371066A1 (C2N DIAGNOSTICS, published 2018)

Key:
Assay in all cases: peptide array of 15-mers of human tau probed with the antibody; label LIN.AA (double alanine)
PEP_2875809 = target: T1, PEP_2875809
T1 peptide: TYGLGDRKDAAGYTM

PEP_2875811 = target: T2, PEP_2875811
T2 peptide: YGLGDRKDQAAYTMH

PEP_2875817 = target: T3, PEP_2875817
T3 peptide: GDRKDQGGYAAHQDQ

PEP_2875819 = target: T4, PEP_2875819
T4 peptide: DRKDQGGYTAAQDQE

PEP_2875821 = target: T5, PEP_2875821
T5 peptide: RKDQGGYTMAADQEG

PEP_2875823 = target: T6, PEP_2875823
T6 peptide: KDQGGYTMHAAQEGD

PEP_2875825 = target: T7, PEP_2875825
T7 peptide: DQGGYTMHQAAEGDT

PEP_2875827 = target: T8, PEP_2875827
T8 peptide: QGGYTMHQDAAGDTD

B1: VH1/VK2 humanized anti-tau antibody (C2N-8E12) (antibody, human IgG4 S228P, kappa, V domains shown)
VH: EVKVVESGGGLVQPGGSMKLSCVVSGFTFSNYWVNWVRQAPGKGLEWVAQIRLKSDNYATHYEESVKGRFTISRDDSKSSVYLQMNNLRAEDSGIYYCTNWEDYWGQGTTVTVSS
VL: DIVLTQSPDSLAVSLGERATISCRASQSVSTSRYSYIHWYQQKPGQPPKLLIKYASNLESGVPSRFSGSGSGTDFTLNIHPLEPEDFATYYCHHSWEIPLTFGQGTKLEIKR
notes: Humanized recombinant IgG4 with S241P hinge mutation, human kappa light chain; also called C2N-8EI2
PEP_2875809
  Binding Signal: 2760
PEP_2875811
  Binding Signal: 1880
PEP_2875817
  Binding Signal: 661
PEP_2875819
  Binding Signal: 2580
PEP_2875821
  Binding Signal: 2790
PEP_2875823
  Binding Signal: 2710
PEP_2875825
  Binding Signal: 2580
PEP_2875827
  Binding Signal: 636
